In general, koff refers to the rate constant with which the complex falls apart. A high value points to a short-lived complex.

Assay [1] concerns the target T1, GST-phage fusion FV7 (glutathione S-transferase displayed on phage without calmodulin, from vector pFV7) (S. japonica; filamentous phage, UniProt P08515 1-218 = GST; P69168 19-424).
T1 construct: Any vector tags of pCANTAB6 are not described; also called non-specific phage; E-fd (GST)
In words: phage ELISA on streptavidin plate with biotin-peptide.

In assay [2] the target is Calmodulin-tagged phage DN323 (calmodulin displayed as a gene III fusion on filamentous phage, from phagemid … (filamentous phage, UniProt P0DP23 2-149)). The experiment in a line: competition ELISA over time with 1000-fold excess of unlabeled peptide. (In general: In an ELISA, binding on a coated surface is turned into a signal by an enzyme label.)

No end group written: not given here. *: point of attachment. Biotin = O=C1N[C@H]2[C@H](CS[C@H]2CCCCC(=O)*)N1

T1 sequence (P08515 1-218, tags or fused parts left off): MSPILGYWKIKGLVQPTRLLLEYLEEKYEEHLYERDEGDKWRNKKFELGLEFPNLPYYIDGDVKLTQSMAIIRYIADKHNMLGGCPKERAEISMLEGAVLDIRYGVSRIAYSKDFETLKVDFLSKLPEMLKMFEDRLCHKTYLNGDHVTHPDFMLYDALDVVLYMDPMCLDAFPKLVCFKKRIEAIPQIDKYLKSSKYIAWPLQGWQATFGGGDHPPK

B1: biotin-labeled CAAARWKKAFIAVSAANRFKKIS peptide (SEQ ID NO: 15) (peptide)
peptide: Biotin-CAAARWKKAFIAVSAANRFKKIS
Consider B1, for which, in assay [1], the binding result is given as “no binding”. This molecule also showed a dissociation rate constant (koff) in assay [2] of under 0.1 s⁻¹.

Source of the values: patent publication US6495673 (MEDICAL RESEARCH COUNCIL, dated 2002).
